We go through 2 molecules from publication PMC3166162, “A Dual Binding Mode for RhoGTPases in Plexin Signalling” (PLoS Biology, 2011).

A word on the stoichiometry N: it is a count of units in the complex or per binding partner. Usually Kd stands for the equilibrium constant for the complex coming apart.

Test [1] deals with Plexin-B1_(cyto) (entire cytoplasmic domain of human Plexin-B1, residues 1511-2135) (human) (UniProt O43157). In words: crystal structure; Plexin-B1_(cyto) and Rac1* mixed 1:1.2; 1 M Li2SO4, 0.5 M ammonium sulphate, 0.1 M citrate pH 5.6; 4.4 Å; three complexes in the asymmetric unit.
In test [2] the target is T1, Plexin-B1_(cyto) Leu2036Arg (human, UniProt O43157-1 1511-2135, Leu2036Arg, biotin, added enzymatically within the engineered C-terminal tag).
T1 construct: human Plexin-B1, cytoplasmic region, residues 1511-2135; also called Leu2036Arg^Plex; site B mutant; source: HEK 293T cells, transfected, purified; not shown: engineered tag for enzymatic biotinylation, C-terminal, kept
The test is described as follows: SPR; Biacore T100, 25°C, standard buffer with 0.05% (v/v) Tween 20; biotinylated plexin constructs on streptavidin surfaces (500-5,000 RU); RhoGTPase injected, 120 nM to 500 µM; equilibrium responses fitted to a 1:1 Langmuir model. The following applies: both partners purified. A general note: SPR reads the build-up and loss of mass on a sensor chip optically.
T1 sequence (O43157 1511-2135 L2036R): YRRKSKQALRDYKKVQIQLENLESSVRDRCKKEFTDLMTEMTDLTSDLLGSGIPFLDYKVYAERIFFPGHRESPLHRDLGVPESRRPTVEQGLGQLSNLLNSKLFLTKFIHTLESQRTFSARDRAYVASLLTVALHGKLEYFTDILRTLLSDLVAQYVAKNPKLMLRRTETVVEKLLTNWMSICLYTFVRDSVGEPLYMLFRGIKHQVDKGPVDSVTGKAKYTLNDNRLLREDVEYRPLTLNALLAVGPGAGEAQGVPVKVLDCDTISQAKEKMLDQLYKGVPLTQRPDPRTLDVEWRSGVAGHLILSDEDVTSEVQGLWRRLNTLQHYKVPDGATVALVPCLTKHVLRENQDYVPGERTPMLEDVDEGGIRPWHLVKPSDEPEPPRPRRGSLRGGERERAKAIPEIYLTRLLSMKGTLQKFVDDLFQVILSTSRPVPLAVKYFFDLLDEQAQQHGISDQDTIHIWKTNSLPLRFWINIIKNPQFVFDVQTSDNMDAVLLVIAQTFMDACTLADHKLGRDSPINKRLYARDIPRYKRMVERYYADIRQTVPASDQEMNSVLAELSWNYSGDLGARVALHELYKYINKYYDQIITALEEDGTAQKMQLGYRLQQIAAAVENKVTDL

The target in test [3] is T2, Plexin-B1_(cyto), wild type, biotinylated within an engineered C-terminal tag for SPR (human, UniProt O43157-1 1511-2135, biotin, added enzymatically within the engineered C-terminal tag).
T2 construct: human Plexin-B1, cytoplasmic region, residues 1511-2135; also called Plexin-B1cyto WT; full-length Plexin-B1_(cyto); source: purified; mutant constructs for SPR: HEK 293T; not shown: engineered tag for enzymatic biotinylation, C-terminal, kept
T2 sequence (O43157 1511-2135, change not shown): as the sequence (O43157 1511-2135 L2036R) above, with R526L counted along it
Described as above. The following applies: both partners purified.

Test [4] concerns the target T3, Plexin-B1_(cyto) Arg1921Ala (human, UniProt O43157-1 1511-2135, Arg1921Ala, biotin, added enzymatically within the engineered C-terminal tag).
T3 construct: human Plexin-B1, cytoplasmic region, residues 1511-2135; also called Arg1921Ala^Plex; site B mutant; source: HEK 293T cells, transfected, purified; not shown: engineered tag for enzymatic biotinylation, C-terminal, kept
The description is as above. Particulars: both partners purified.
T3 sequence (O43157 1511-2135 R1921A): as the sequence (O43157 1511-2135 L2036R) above, with R411A, R526L counted along it

Test [5] has as its target T4, Plexin-B1_(cyto) Thr1920Glu (human, UniProt O43157-1 1511-2135, Thr1920Glu, biotin, added enzymatically within the engineered C-terminal tag).
T4 construct: human Plexin-B1, cytoplasmic region, residues 1511-2135; also called Thr1920Glu^Plex; site B mutant; source: HEK 293T cells, transfected, purified; not shown: engineered tag for enzymatic biotinylation, C-terminal, kept
The description is as above. Particulars: both partners purified.
T4 sequence (O43157 1511-2135 T1920E): as the sequence (O43157 1511-2135 L2036R) above, with T410E, R526L counted along it

The target in test [6] is T5, Plexin-B1Δ2 Leu1815Glu (human, UniProt O43157-1 1543-2135, Leu1815Glu, biotin, added enzymatically within the engineered C-terminal tag).
T5 construct: human Plexin-B1, cytoplasmic region lacking the N-terminal helix, residues 1543-2135; also called site A Plexin-B1Δ2 mutant Leu1815Glu^Plex; source: HEK 293T cells, transfected, purified; not shown: engineered tag for enzymatic biotinylation, C-terminal, kept
In words: SPR; as a1, high coupling density: 5,000 RU of the plexin construct loaded on the chip; RhoGTPase 120 nM to 2,000 µM. Particulars: both partners purified.
T5 sequence (O43157 1543-2135 L1815E): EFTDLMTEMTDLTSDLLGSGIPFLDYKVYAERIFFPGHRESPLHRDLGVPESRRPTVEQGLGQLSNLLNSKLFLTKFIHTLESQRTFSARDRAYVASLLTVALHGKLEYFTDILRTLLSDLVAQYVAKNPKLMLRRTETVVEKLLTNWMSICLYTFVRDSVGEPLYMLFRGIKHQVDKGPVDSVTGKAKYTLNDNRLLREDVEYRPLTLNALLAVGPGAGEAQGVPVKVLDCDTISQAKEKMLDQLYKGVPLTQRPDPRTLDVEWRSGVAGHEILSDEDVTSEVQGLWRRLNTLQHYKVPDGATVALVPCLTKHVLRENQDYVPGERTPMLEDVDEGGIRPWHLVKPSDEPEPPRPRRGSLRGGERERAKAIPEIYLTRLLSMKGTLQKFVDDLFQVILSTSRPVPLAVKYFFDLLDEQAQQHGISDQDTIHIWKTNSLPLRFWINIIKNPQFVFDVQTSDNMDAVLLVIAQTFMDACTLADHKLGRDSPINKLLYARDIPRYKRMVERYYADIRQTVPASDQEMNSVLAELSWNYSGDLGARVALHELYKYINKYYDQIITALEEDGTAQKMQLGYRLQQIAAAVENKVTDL

Test [7] deals with Plexin-B1_(cyto) Thr1920Glu (human, UniProt O43157-1 1511-2135, Thr1920Glu, biotin, added enzymatically within the engineered C-terminal tag). In words: SPR.
Target sequence in this assay (O43157 1511-2135 T1920E): as the sequence (O43157 1511-2135 L2036R) above, with T410E, R526L counted along it
Test [8] addresses Plexin-B1_(cyto) Arg1921Ala (human, UniProt O43157-1 1511-2135, Arg1921Ala, biotin, added enzymatically within the engineered C-terminal tag). The test is described as follows: SPR.
Target sequence in this assay (O43157 1511-2135 R1921A): as the sequence (O43157 1511-2135 L2036R) above, with R411A, R526L counted along it
For test [9], the target named is Plexin-B1_(cyto) Leu2036Arg (human, UniProt O43157-1 1511-2135, Leu2036Arg, biotin, added enzymatically within the engineered C-terminal tag). In words: SPR.
Target sequence in this assay (O43157 1511-2135 L2036R): as the sequence (O43157 1511-2135 L2036R) above
In test [10] the target is Plexin-B1Δ2 Leu1815Glu (human, UniProt O43157-1 1543-2135, Leu1815Glu, biotin, added enzymatically within the engineered C-terminal tag). In words: SPR; surface 5,000 RU.
Target sequence in this assay (O43157 1543-2135 L1815E): as the sequence (O43157 1543-2135 L1815E) above

Molecule “Plexin-B1_(cyto) (entire cytoplasmic domain of human Plexin-B1, residues 1511-2135) (from UniProt O43157-1 1511-2135) (domain or fragment)” displayed a stoichiometry N in test [1] of 3.

B1: Rnd1 (residues 5-200) (enzyme, human, UniProt Q92730 5-200, looked up)
chain: RAPQPVVARCKLVLVGDVQCGKTAMLQVLAKDCYPETYVPTVFENYTACLETEEQRVELSLWDTSGSPYYDNVRPLCYSDSDAVLLCFDISRPETVDSALKKWRTEILDYCPSTRVLLIGCKTDLRTDLSTLMELSHQKQAPISYEQGCAIAKQLGAEIYLEGSAFTSEKSIHSIFRTASMLCLNKPSPLPQKSPV
notes: human Rnd1, residues 5-200; source: E. coli BL21 Star, purified
As to B1, the binding result (in test [2]; in test [4]; in test [5]; with Plexin-B1Δ2 Leu1815Glu [6]) was “binds” in each case. Further, the Kd in test [3] was found to be 22.9 µM; in [7], 14.2 µM; in test [8] it was 15.2 µM; in test [9], 16.5 µM; with Plexin-B1Δ2 Leu1815Glu [10] it was 486 µM.
